Source: the DeepSol protein solubility set

Experiment: soluble on expression in E. coli; label from the status in PepcDB or PDB records

| Sequence | soluble on expression in E. coli |
| --- | --- |
| MGSDKIHHHHHHMAAGRDTALLMMNLMNAPVPLSPALELALPVDTAVVGVGYFGSLHALCYSRLPGSRLQALIDPDPITQFLAEHLGVPWFPGVAELPSTIRAVSVATPVAMHFGLTRSLLQQGLDVLLEKPIAETAAQATELRMVAEANQCILQIGHIERFNPAYTAGGTLLPFARTVRSVRTTRHPPRSSALDVVIDLMIHDLDLILHSLDSSVVELRASGRSCGLTAIDEAEVELTFSNGCRVYLDAHWGRDTEQDARCMVAELENDETWVIDFRRRMTYRKEPGSSTGPLPADGHTLPFPMQRIQEDTLSLQLAAFLDACRNRSLPRVTPAEGNAALELAHCIRQQILRPCP | not soluble |
| MMIENLLIELLTEELPPKSLDKLGNAFAAVIADSLKSQNLTTPDTILTAFASPRRLAVHLTAIPAQAPDQVVALKLMPITVGLDAQGQPTPALHKKLAALGMENVDASALKRVQESKAEMLFLEQNVTGILLAAGLQKAMEDAIRQLPVSKVMTYQLDDGWENVHFVRPVHGLIALHGQKIIPVSAFGLTAGNTTRGHRFEVKQTELIIDHADRYASLLETEGAVIPGFDRRRSWIREGLEAAASAVQLRCISDEVLLDEVTALVEYPNILMGAFPTDFLEVPQECLISTMKINQKYFPLLDTDGKLTNQFLIVANITPADPGQIISGNERVIRSRLADAKFFFDHDRKRTLASRLPDLDKVIYHHQLGSQGERTRYVQTLARIIGRLLGDDNLAGQADQAAMLAKADLLTDMVGEFPELQGIMGRYYARFEGMDETIAFAIEDHYKPRFAGDVLPRSMAGICVALADKLETLISLFSIGQLPTGDKDPYALRRHALGVIRILIEKNLPIGLDVLISRAADVLQDEMIGKQDSGPGHARPVTPQLVGQLQDFFYDRLAASLRDQGYTAQEVEAVLNLRPSL | not soluble |
| MSLLTLAFNPQPRAKTYCSGPILRVSGVWAVKILYIVLDGAADSPTSPRKTLEEASKPNIDSLGSHAVCGMVYTVKPGVAPQSDYATLSLLGYNPDEYYPGRGPLEAFGAGIEMRRGDIALRANFATVDPGTLRIIDRRVGRSLTSREARELASAVDGMELEDGEGTALFRATIGHRGVLVLRHRSKPLSDAISNTDPAYERRGRFSVALEKYEPFIKLSNPLVEDEAAVLAARMLNEFTLKAVEILDSHPVNLAREKRGLLKANAILSRDAGGLPEEKPPSFQERFGLRGASIVEMVVERGISRYIGLDDIRVEIEGRAREEVYREEAARAVEALETHDLVYVHLKGPDEPGHDGSFEGKIRAVEDIDKHFFAPLLDRLSSAGLEPAFVVTSDHATPWDVGAHSGDPVPLMISHQSIQGSIGKFSETVCLRGRLGTIIGGYRIIPKTLSLLAGLEHHHHHH | soluble |
| MSSEFISKVDKEARRKAANILRDKFLNLVEQLKKGEPLVMEIPMRTLSNAIYDEKRKLLLLGEKKLRRNFLDLNEAKRFMQTVLMASIIYDALVSDEYPTIRDLYYRGKHSLLLKSIEGNKIVSEENTWDEQKESDSVIVDIEVFTSLLREEMLILSKEKGKVVGNLRIRSGNDVIDLSKTGHGAYAIEPTPDLIDFIDVDAEFVLVVEKDAVFQQLHRAGFWKQYKSILITSAGQPDRATRRFVRRLNEELKLPVYILTDADPYGWYIFSVFRIGSISLSYESERLATPDAKFLGVSMGDIFGNSRKKPYLSEAERKNYIIKAKDADIKRAEEIKNYEWFKTKAWQEEINTFLQRKAKLEIEAMASKGLKFLAFQYIPEKITNKDYIA | soluble |
| MESTKSYDIPILRNVSRSFSVHYRDYLQRCGIFVPKEGNSSGPDAYVVFHNGQTRYVVGFSFKFYHKSEFSKRNIEEEAKKFFKGVVSVLNDESFSSVQLRFQFVMVVCTSYGRSVVFSSEEQNIVEDASYLVTEHSSGSTLNESSRSCLQLVIVSQRNLEMYLGRDNVETLRKIGEASREEFSKDFSVWCETVFESMSNEYVSPLEQSNVTLRVARNIRPRTNEENRMQIEELQTAMKVERSVAASSSLSSSFDWNTFLREYCGLSEEDVAYCLPKVEDIDMDELPAVTKEILRDLGIDKPALRLKIRSSIRSYLANER | soluble |
| GSSALLDTDEVGSELDDSDDDYLISEGEEDGPDENLMLCLYDKVTRTKARWKCSLKDGVVTINRNDYTFQKAQVEAEWV | soluble |
| MSKEQAHAELKKDYLIHDEKIMLMQEIVDRQLAAVPDLYRVKDEVSIYIGIPFCPTKCAYCTFPAYAIQGQAGRVGSFLWGLHYEMQKIGEWLKEHDVKVTTIYFGGGTPTSITAEEMDLLYEEMVRSFPDVKNIREITVEAGRPDTITEEKLAVLNKYDIDRISINPQSYENETLKAIGRHHTVEETIEKYHLSRQHGMNNINMDLIIGLPGEGVKEFRHSLSETEKLMPESLTVHTLSFKR | not soluble |
| MGSDKIHHHHHHMRVILAPMQGVLDPFVRELLTEVNDYDLCITEFVRVVDQLLPEKVFYRLCPELKNQGFTSSGTPVRVQLLGQHPKCLAENAIRAIDLGSHGIDLNCGCPSKTVNGSNGGAALLKQPELIYRATQALRRAVPSEFPVSVKVRLGWDDISQAFEIADAVEQGGATEITVHGRTKADGYRADRINWKKISEVRERLSIPVIANGEIWHWQDGQDCLSQTGCQDLMVGRGALNIPNLSHVLKSNAEKMPWYEIQKILQKYANVENEYDSGFYHVARIKQWLRYLNKEYNEANQVFDKIKTCQTAEDLKLRLNEK | not soluble |
| GAMSSKNEWRKSAIANTLLYLRLKNIYVSADDFVEEQNVYVLPKNLLKKFIEISDVKIQVAAFIYGMSAKDHPKVKEIKTVVLVPQLGHVGSVQISNIPDIGDLPDTEGLELLGWIHTQTEELKFMAASEVATHSKLFADKKRDCIDISIFSTPGSVSLSAYNLTDEGYQWGEENKDIMNVLSEGFEPTFSTHAQLLLSDRITGNFIIPSGNVWNYTFMGTAFNQEGDYNFKYGIPLEFYNEMHRPVHFLQFSE | soluble |
| TSKETFTHYQPQGNSDPAHTATAPGGLSAKAPAMTPLMLDTSSRKLVAWDGTTDGAAVGILAVAADQTSTTLTFYKSGTFRYEDVLWPEAASDETKKRTAFAGTAISIV | soluble |
| MSLVVKVKQKIPLKIKRMGINGEGIGFYQKTLVFVPGALKGEDIFCQITAVKRNFAEAKLLTVNKASKNRVKPACSVYETCGGCQIMHLAYPKQLDFKDDVIRQALKKFKPTGYEQFEIRPTLGMKKPDHYRAKLQFQLRSFGGTVKAGLFSQGSHRLVPIDNCLVQDQLTQDIINKITQLVDKYKLPIYNERKIAGIRTIMVRKAQASDQVQIIVVSSKEVRLANFIGELTKAFPQVKTVALNSNRSKSSEIYGDETEILWGQEAIHEEVLDYGFALSPRAFYQLNPQQTEVLYGEVVKALDVGSKDHIIDAYCGVGSIGFAFAGKVKSVRGMDIIPEAIEDAQKNAKAMGFDNAYYEAGKAEDIISKWYKQGYRADAVIVDPPRTGLDDKLLKTILHYQPKQMVYVSCNTSTLARDLVQLTKVYDVHYIQSVDMFPHTARTEAVVKLQKRVEGHHHHHH | not soluble |
| MGSDKIHHHHHHEEYFNAIRTNIQLSGVDIKVVGITSVKSNEGKSTTAASLAIAYARSGYKTVLVDADIRNSVMPGFFKPMTKITGLTDYLAGTTDLSQGLCDTDIPNLTVIESGKVSPNPTALLQSKSFENLLATLRRYYDYVIVDCPPLGLVIDAAIIAQKCDAMVAVVEAGNVKCSSLKKVKEQLEQTGTPFLGVILNKYDIATEKYGEYGNYGKKA | not soluble |
| MEIHTYEKEFFDLLKRISHYSEAVALMHWDSRTGAPKNGSEDRAESIGQLSTDIFNIQTSDRMKELIDVLYERFDDLSEDTKKAVELAKKEYEENKKIPEAEYKEYVILCSKAETAWEEAKGKSDFSLFSPYLEQLIEFNKRFITYWGYQEHPYDALLDLFEPGVTVKVLDQLFAELKEAIIPLVKQVTASGNKPDTSFITKAFPKEKQKELSLYFLQELGYDFDGGRLDETVHPFATTLNRGDVRVTTRYDEKDFRTAIFGTIHECGHAIYEQNIDEALSGTNLSDGASMGIHESQSLFYENFIGRNKHFWTPYYKKIQEASPVQFKDISLDDFVRAINESKPSFIRVEADELTYPLHIIIRYEIEKAIFSNEVSVEDLPSLWNQKYQDYLGITPQTDAEGILQDVHWAGGDFGYFPSYALGYMYAAQLKQKMLEDLPEFDALLERGEFHPIKQWLTEKVHIHGKRKKPLDIIKDATGEELNVRYLIDYLSNKYSNLYLL | soluble |
| MSLNGDNQQILREIVLNPTIHGKELESIFGLSRRQLGYRIQKINLWLEQEGYPKLERTSQGNFIVSSEIMTLFKRDVSEQQMLNGNNVIFSIETRRYYLMLMLFSKENAMSLNHFSIDLQVSKNTVIHDINHVKEQLENHGLSLKYSRKHGYEIVGDEFEVRRFFIKLIDQRLNHDITKSEVLKALNLTFEDIAYQKDKIKQVEQFLKSRFIDKSLSSLPYVLCVIRRRIQSGHVMNPLNINYQYLRDTKEYQATEIMTQHEPDLPEAEKLYLTLHLLSTSVQWTDLQESDSISNLTMAIAQMIHHFEQITFINIEDKEKLSQQLLLHLTPAFYRIKYNLTDRDELINPLQGNYQSLFHMVKQSCQSLTEYFGKSLPDNEIAYLTMLFGGSLRREGHHHHHH | soluble |
| MGSDKIHHHHHHMKNYKFLVPILLVALLGGSVYKTYSDREKINKQYDNDITQARQNRKLEVYVNAEEDYLDALKLKDSAKLRAELGEMYIEAEDLRTAAKWGESLISEYPKEQVGYEFLIQVYLEQKDYASCFRIKDEADGLKISSKKIEEIISDIKYEYYLEGEYAQVEEFSNGYAAVKKEKKWGYLNSKGHRVIESEFEEAGAFAKEVAPVIDDKGRAFYIDNEGNRKIVIDFVDNIEKLGYMSMDNIFPVNDGKKWSLYSLDSKKKIAGDYDEVSAMGNGVAAVKSDDKWSLIDTKGKKVTKDKYDSVVMDSKGIVCRNDRVFAKQNGYYYLFDSKGNKVVKTKFDDARLFADDGYAAVCVDGKWGFVDKDGKQVIKPQFNEAHSFSNGLAAVRFSNGWGYVDEKGNKVIETGFDDACDFNEQGKTFVKTDDKWQVLTLYLYNHES | not soluble |
| MTDARPRICILGGGFGGLYTALRLGQLSWEGHTPPEIVLVDQRDRFLFAPFLYELVTEEMQTWEIAPPFVELLAESGVIFRQAEVTAIDFDHQKVLLNDQDKGTESLAFDQLVIALGGQTPLPNLPGLKDYGLGFRTLEDAYKLKQKLKSLEQADAEKIRIAIVGGGYSGVELAAKLGDRLGERGRIRIIERGKEILAMSPEFNRQQAQASLSAKGIWVDTETTVTAITATDVTLQFREQEDVIPVDLVLWTVGTTVSPLIRNLALPHNDQGQLRTNAQLQVEGKTNIFALGDGAEGRDASGQLIPTTAQGAFQQTDYCAWNIWANLTGRPLLPCRYQPLGEMLALGTDGAVLSGLGIKLSGPAALLARRLVYLYRFPTWQHQLTVGLNWLTRPLGDWLKNEPSLEHHHHHH | not soluble |
| GMNAIRYTKRECKDEKKITEFLNKARTGFLGLSTNDQPYVIPLNFVWHNHAIYFHGASEGRKIKMIEANPEVCFTICEDLGTIVSPVPAHTDTAYMSVIIFGTIEPVSAIEEGTEAMQQMLDKYVPGYYHSPLAASHVEKYRSSLGSRTAIYKISCRERTAKVNEPIESLKFYPGRNVSVDKDSR | soluble |
| MSSYDVVIIGGGPAGLFAAYELAGLAKDNVSNYKILLVDKGARASKRTCPLLSPKEKCTFCDPCHIMYGFGGAGTFSSGIINLRPDIGGELHEITRSWDKAQELINYVDDIFVKFGAPKDRVFEPNMEKVREIQRRAAKVGAEFVPIRQRHMGTDKTPLIIENIVNYVEKRGIKIGELTEVIDIEKKGNKFFLKTSRGEIESRIVLVAPGRAGAKWFYEQSKKLGVDTIPGPLDIGVRVETESFVFDELTEAVWDPKVILYSKRYDDKVRTFCVNPRGYIMKEVYDDGTIGVNGETYVDKKSNNTNFAFLTTIKLSDPLEDTIEYGKSIARLMTRLGGGKPILQRLIDFQKGRRSTWERINRSTVKPTLRDVTPGDISMGLPYRVVDNLIDGLERLDSIAPGIFSSNTLLYAPEIKYYSVRAVVDNNMETVVDNLFAAGDGTGLSRGINVAAATGILAARGIAIKLGLDLEHHHHHH | not soluble |
